Assay results from publication PMC2877716, “Genome-Wide Identification of Calcium-Response Factor (CaRF) Binding Sites Predicts a Role in Regulation of Neuronal Signaling Pathways”.

Key:
CaRF (E. coli) [1] = target: T1, CaRF (E. coli) (Mus musculus (Methods); human per Fig 2 …, UniProt Q8VHI4 1-689); assay: competition; CaRE1 probe, 50-fold excess; EMSA: 2 uL TNT or purified CaRF with 50 fmol 32P probe, 6% non-denaturing gel; competitors 50-150-fold excess, 30 min pre-incubation; buffer, pH and temperature not stated (cited ref 14); details: protein: recombinant; blunt
T1 sequence: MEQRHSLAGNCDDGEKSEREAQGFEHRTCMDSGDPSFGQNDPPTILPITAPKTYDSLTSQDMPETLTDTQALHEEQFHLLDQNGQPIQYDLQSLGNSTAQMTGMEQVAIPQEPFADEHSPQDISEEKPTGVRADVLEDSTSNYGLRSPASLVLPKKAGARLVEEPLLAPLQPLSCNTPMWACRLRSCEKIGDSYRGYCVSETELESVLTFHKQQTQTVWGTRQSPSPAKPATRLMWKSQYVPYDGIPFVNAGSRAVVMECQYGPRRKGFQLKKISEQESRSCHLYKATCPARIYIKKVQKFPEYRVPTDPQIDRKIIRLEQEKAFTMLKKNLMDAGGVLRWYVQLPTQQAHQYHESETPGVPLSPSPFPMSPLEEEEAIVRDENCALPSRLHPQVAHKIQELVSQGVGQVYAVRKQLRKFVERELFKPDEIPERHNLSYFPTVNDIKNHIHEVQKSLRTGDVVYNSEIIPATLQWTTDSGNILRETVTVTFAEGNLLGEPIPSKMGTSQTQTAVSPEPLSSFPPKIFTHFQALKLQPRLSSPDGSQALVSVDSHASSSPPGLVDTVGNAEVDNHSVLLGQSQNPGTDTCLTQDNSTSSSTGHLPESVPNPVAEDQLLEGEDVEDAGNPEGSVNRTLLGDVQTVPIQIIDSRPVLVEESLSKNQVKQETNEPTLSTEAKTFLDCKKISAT

CaRF (TNT) [2] = target: T2, CaRF (TNT) (Homo sapiens, UniProt Q8N187 1-725); assay: as above; details: protein: ivt; tags: N-terminal FLAG (DYKDDDDK); blunt
T2 sequence: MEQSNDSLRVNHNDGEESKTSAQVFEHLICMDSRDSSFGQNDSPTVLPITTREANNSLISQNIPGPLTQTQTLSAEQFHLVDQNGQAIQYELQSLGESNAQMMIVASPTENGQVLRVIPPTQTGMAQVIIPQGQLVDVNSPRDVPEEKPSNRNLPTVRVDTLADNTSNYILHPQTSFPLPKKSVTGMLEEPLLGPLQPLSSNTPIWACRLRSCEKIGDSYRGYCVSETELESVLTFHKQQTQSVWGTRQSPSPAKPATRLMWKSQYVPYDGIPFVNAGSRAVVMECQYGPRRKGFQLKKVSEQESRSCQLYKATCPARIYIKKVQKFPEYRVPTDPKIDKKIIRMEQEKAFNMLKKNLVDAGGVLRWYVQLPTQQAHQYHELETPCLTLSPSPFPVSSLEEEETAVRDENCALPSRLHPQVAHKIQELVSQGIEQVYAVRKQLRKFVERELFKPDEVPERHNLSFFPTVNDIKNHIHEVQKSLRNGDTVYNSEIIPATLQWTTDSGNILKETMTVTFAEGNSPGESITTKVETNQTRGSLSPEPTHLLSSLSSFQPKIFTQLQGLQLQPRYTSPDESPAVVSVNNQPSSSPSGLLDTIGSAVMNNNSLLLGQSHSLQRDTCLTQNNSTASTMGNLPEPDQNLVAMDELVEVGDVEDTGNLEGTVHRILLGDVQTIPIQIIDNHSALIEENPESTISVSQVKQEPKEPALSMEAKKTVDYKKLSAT

[3] = target: T3, recombinant CaRF (Figs 5 and 6) (UniProt Q8VHI4 1-689); assay: competition; camCaRE probe, 50-100-fold excess; EMSA: 2 uL TNT or purified CaRF with 50 fmol 32P probe, 6% non-denaturing gel; competitors 50-150-fold excess, 30 min pre-incubation; buffer, pH and temperature not stated (cited ref 14); details: protein: recombinant; blunt
T3 sequence: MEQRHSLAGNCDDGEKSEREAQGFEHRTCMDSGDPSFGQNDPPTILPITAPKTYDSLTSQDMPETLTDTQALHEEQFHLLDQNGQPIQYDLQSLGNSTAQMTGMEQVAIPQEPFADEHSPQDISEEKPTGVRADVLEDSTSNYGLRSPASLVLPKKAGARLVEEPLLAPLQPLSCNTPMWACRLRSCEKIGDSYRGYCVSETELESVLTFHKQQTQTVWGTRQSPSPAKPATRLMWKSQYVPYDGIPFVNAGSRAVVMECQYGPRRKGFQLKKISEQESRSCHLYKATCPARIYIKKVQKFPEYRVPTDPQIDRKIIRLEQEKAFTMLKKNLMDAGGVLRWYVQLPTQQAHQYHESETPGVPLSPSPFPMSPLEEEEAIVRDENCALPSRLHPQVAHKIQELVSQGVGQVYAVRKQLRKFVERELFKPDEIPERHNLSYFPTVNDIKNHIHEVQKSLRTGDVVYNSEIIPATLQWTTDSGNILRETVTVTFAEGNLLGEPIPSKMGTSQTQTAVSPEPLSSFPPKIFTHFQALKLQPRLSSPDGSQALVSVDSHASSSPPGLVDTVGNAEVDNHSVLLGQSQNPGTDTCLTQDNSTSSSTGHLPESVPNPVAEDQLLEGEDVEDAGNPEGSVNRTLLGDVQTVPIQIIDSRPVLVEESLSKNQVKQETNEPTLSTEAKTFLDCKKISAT

CaRF (E. coli) [4] = target: T1, CaRF (E. coli); assay: EMSA; EMSA: 2 uL TNT or purified CaRF with 50 fmol 32P probe, 6% non-denaturing gel; competitors 50-150-fold excess, 30 min pre-incubation; buffer, pH and temperature not stated (cited ref 14); details: protein: recombinant; label: 32P when probe; blunt
CaRF (TNT) [5] = target: T2, CaRF (TNT); assay: as above; details: protein: ivt; tags: N-terminal FLAG (DYKDDDDK); label: 32P when probe; blunt
[6] = target: T3, recombinant CaRF (Figs 5 and 6); assay: competition; cCaRE probe, 100-fold excess; higher affinity than CaRF1; EMSA: 2 uL TNT or purified CaRF with 50 fmol 32P probe, 6% non-denaturing gel; competitors 50-150-fold excess, 30 min pre-incubation; buffer, pH and temperature not stated (cited ref 14); details: protein: recombinant; blunt
[7] = target: T3, recombinant CaRF (Figs 5 and 6); assay: EMSA; EMSA: 2 uL TNT or purified CaRF with 50 fmol 32P probe, 6% non-denaturing gel; competitors 50-150-fold excess, 30 min pre-incubation; buffer, pH and temperature not stated (cited ref 14); details: protein: recombinant; label: 32P when probe; blunt

B1: mCaRE1 (mCaRE) (dsDNA)
DNA 1: GAGTGTCTTCCGCCAGGCAGAGGAGG
DNA 2: CCTCCTCTGCCTGGCGGAAGACACTC
CaRF (E. coli) [1]
  binding result: no binding
CaRF (TNT) [2]
  binding result: no binding
[3]
  binding result: no binding

B2: CaRE1 (dsDNA)
DNA 1: GAGTGTCTATTTCGAGGCAGAGGAGG
DNA 2: CCTCCTCTGCCTCGAAATAGACACTC
CaRF (E. coli) [4]
  binding result: binds
CaRF (TNT) [5]
  binding result: binds

B3: CaRF2 (dsDNA)
DNA 1: TGAGTAGTCTCGTTTTGAATTTTCTCC
DNA 2: GGAGAAAATTCAAAACGAGACTACTCA
[6]
  binding result: binds

B4: camCaRE (dsDNA)
DNA 1: TCAAAGCGAGGCAGA
DNA 2: TCTGCCTCGCTTTGA
[7]
  binding result: binds
